Paper PMC10926838, “Self-driving laboratories to autonomously navigate the protein fitness landscape” (Nature chemical engineering, 2024)
Values belong to the molecule of their own block, whether it stands above or below them.

Columns and labels:
6151 = test system: T1, 6151; experiment: fluorescence of released 4-methylumbelliferone, Michaelis-Menten fit; type: biochemical, Streptomyces sp.; conditions: 10 nM enzyme, 0.5% DMSO, 10 mM phosphate pH 7, 50 mM NaCl
T1 construct: gene P6F0-P1F1-P5F2-P1F3; pET-22b, Ni-NTA purified
Text: fluorescence of released 4-methylumbelliferone, Michaelis-Menten fit on 6151 | We also tested the enzymes’ Michaelis–Menten kinetic properties

[1] = substrate: Cc1cc(=O)oc2cc(O[C@@H]3O[C@H](CO)[C@@H](O)[C@H](O)[C@H]3O)ccc12; experiment: as above; type: biochemical, Streptomyces sp. QM-B814; conditions: 10 nM enzyme, 0.5% DMSO, 10 mM phosphate pH 7, 50 mM NaCl

Km 6151: 214 µM
Molecule: Cc1cc(=O)oc2cc(O[C@@H]3O[C@H](CO)[C@@H](O)[C@H](O)[C@H]3O)ccc12 [4-methylumbelliferyl-β-D-glucopyranoside]

B1: Bgl3 (Streptomyces sp. QM-B814) (protein)
chain: MVPAAQQTATAPDAALTFPEGFLWGSATASYQIEGAAAEDGRTPSIWDTYARTPGRVRNGDTGDVATDHYHRWREDVALMAELGLGAYRFSLAWPRIQPTGRGPALQKGLDFYRRLADELLAKGIQPVATLYHWDLPQELENAGGWPERATAERFAEYAAIAADALGDRVKTWTTLNEPWCSAFLGYGSGVHAPGRTDPVAALRAAHHLNLGHGLAVQALRDRLPADAQCSVTLNIHHVRPLTDSDADADAVRRIDALANRVFTGPMLQGAYPEDLVKDTAGLTDWSFVRDGDLRLAHQKLDFLGVNYYSPTLVSEADGSGTHNSDGHGRSAHSPWPGADRVAFHQPPGETTAMGWAVDPSGLYELLRRLSSDFPALPLVITENGAAFHDYADPEGNVNDPERIAYVRDHLAAVHRAIKDGSDVRGYFLWSLLDNFEWAHGYSKRFGAVYVDYPTGTRIPKASARWYAEVARTGVLPTA
notes: wild-type; pET-22b, E. coli BL21(DE3), Ni-NTA purified
Km [1]: 76 µM
kcat [1]: 10.7 s⁻¹
